Results on three substances are retold here after patent US20240226225A1 (Protagonist Therapeutics, Inc., priority 2021, published 2024).

Assay [1] concerns ferroportin fused to green fluorescent protein. The conditions noted are these: read-out: EC50 (50% of the maximal loss of fluorescence); cells incubated for 24 hours with graded concentrations; cited from earlier work.
The target in assay [2] is human ferroportin (SLC40A1) fused in frame with GFP, stably expressed in HEK293 cells (human) (UniProt Q9NP59). Description: cell-based or functional assay.

As for “Hy-DTHFPIC(1)IFC(2)C(3)GC(2)C(4)HRSKC(3)GMC(4)C(1)KT-OH [Hepcidin]”, the EC50 (in general, the concentration giving half of the maximal effect) in assay [1] was 5 to 15 nM. Mini-Hepcidin 1-9, Hy-…-NH2 (peptide) displayed a Potency EC50 (nM), FPN activity assay (ferroportin-GFP internalization/degradation, HEK293 cells) in assay [2] of 712 nM. The substance “RI-Mini Hepcidin, Hy-DPhe-DIle-DCys-DIle-DPro-DPhe-DHis-DThr-DAsp-NH2 (peptide)” showed a Potency EC50 (nM), FPN activity assay (ferroportin-GFP internalization/degradation, HEK293 cells) in assay [2] of over 10000 nM.
